Data published in patent US20060019320A1, “Wnt mediated erbb signalling, compositions and uses related thereto” (priority 2002, published 2006).

B1: EGF: an ErbB1 activator, used as control for ErbB1 activation (protein, UniProt P01133 23-1207, looked up)
Pro-epidermal growth factor: PQHWSCPEGTLAGNGNSTCVGPAPFLIFSHGNSIFRIDTEGTNYEQLVVDAGVSVIMDFHYNEKRIYWVDLERQLLQRVFLNGSRQERVCNIEKNVSGMAINWINEEVIWSNQQEGIITVTDMKGNNSHILLSALKYPANVAVDPVERFIFWSSEVAGSLYRADLDGVGVKALLETSEKITAVSLDVLDKRLFWIQYNREGSNSLICSCDYDGGSVHISKHPTQHNLFAMSLFGDRIFYSTWKMKTIWIANKHTGKDMVRINLHSSFVPLGELKVVHPLAQPKAEDDTWEPEQKLCKLRKGNCSSTVCGQDLQSHLCMCAEGYALSRDRKYCEDVNECAFWNHGCTLGCKNTPGSYYCTCPVGFVLLPDGKRCHQLVSCPRNVSECSHDCVLTSEGPLCFCPEGSVLERDGKTCSGCSSPDNGGCSQLCVPLSPVSWECDCFPGYDLQLDEKSCAASGPQPFLLFANSQDIRHMHFDGTDYGTLLSQQMGMVYALDHDPVENKIYFAHTALKWIERANMDGSQRERLIEEGVDVPEGLAVDWIGRRFYWTDRGKSLIGRSDLNGKRSKIITKENISQPRGIAVHPMAKRLFWTDTGINPRIESSSLQGLGRLVIASSDLIWPSGITIDFLTDKLYWCDAKQSVIEMANLDGSKRRRLTQNDVGHPFAVAVFEDYVWFSDWAMPSVMRVNKRTGKDRVRLQGSMLKPSSLVVVHPLAKPGADPCLYQNGGCEHICKKRLGTAWCSCREGFMKASDGKTCLALDGHQLLAGGEVDLKNQVTPLDILSKTRVSEDNITESQHMLVAEIMVSDQDDCAPVGCSMYARCISEGEDATCQCLKGFAGDGKLCSDIDECEMGVPVCPPASSKCINTEGGYVCRCSEGYQGDGIHCLDIDECQLGEHSCGENASCTNTEGGYTCMCAGRLSEPGLICPDSTPPPHLREDDHHYSVRNSDSECPLSHDGYCLHDGVCMYIEALDKYACNCVVGYIGERCQYRDLKWWELRHAGHGQQQKVIVVAVCVVVLVMLLLLSLWGAHYYRTQKLLSKNPKNPYEESSRDVRSRRPADTEDGMSSCPQPWFVVIKEHQDLKNGGQPVAGEDGQAADGSMQPTSWRQEPQLCGMGTEQGCWIPVSSDKGSCPQVMERSFHMPSYGTQTLEGGVEKPHSLLSANPLWQQRALDPPHQMELTQ
modifications: Pro-epidermal growth factor
B2: sFRP1: secreted Frizzled-related protein-1, binds Wnt preventing it from binding Fz; used as CM from sFRP1-producing HEK293 cells (protein, UniProt Q8N474 32-314, looked up)
Secreted frizzled-related …: SEYDYVSFQSDIGPYQSGRFYTKPPQCVDIPADLRLCHNVGYKKMVLPNLLEHETMAEVKQQASSWVPLLNKNCHAGTQVFLCSLFAPVCLDRPIYPCRWLCEAVRDSCEPVMQFFGFYWPEMLKCDKFPEGDVCIAMTPPNATEASKPQGTTVCPPCDNELKSEAIIEHLCASEFALRMKIKEVKKENGDKKIVPKKKKPLKLGPIKKKDLKKLVLYLKNGADCPCHQLDNLSHHFLIMGRKVKSQYLLTAIHKWDKKNKEFKNFMKKMKNHECPTFQSVFK

Columns and labels:
ERK1/2 = assay: phospho-ERK1/2 immunoblot (MAPK activity) in HC11 cells; assay type: cell-based, mouse
Source text: The MAPK and PI3K pathways are major signaling cascades downstream of activated ErbB receptors (Olayioye et al., 2000). Antisera specific for the active, phosphorylated forms of ERK1/2 and PKB, the major kinases on the respective pathways, were used to probe for their activity. 50 micrograms of WCL were immunoblotted essentially as described above with the exception that a phospho-ERK1/2 antibody (commercially available, New England Biolabs) or a phosphoPKB antibody was used. Membranes were stripped and reprobed for ERK1/2 (anti-p44/42 ERK, New England Biolabs).
Briefly, conditioned media (CM) from Wnt-HC11 cells prepared as described in Example 1 was tested for its effect on ErbB1 and MAPK activity, essentially as described above. Treatment of C-HC11 cells for 10 min with Wnt1- and Wnt5a-CM stimulated phospho-ERK1/2 levels 5-6-fold, whereas CM from C-HC11 cells had no effect.
To rule out the potential involvement of ErbB1 ligands in mediating the effects of Wnt-containing CM, we used secreted Frizzled-related protein-1 (sFRP-1), which binds Wnt preventing it from binding Fz (Uren et al., 2000). […]
The metalloproteinase inhibitors were next tested in the presence of Wnt-containing CM. […] Phospho-ERK1/2 levels were determined as above. […]

ErbB1 = target: T1, ErbB1 (Mus musculus, UniProt Q01279); assay: ErbB1 immunoprecipitation and phosphotyrosine immunoblot in HC11 cells; assay type: cell-based; details: HC11 cells, 100 ng/ml EGF for 10 minutes
T1 construct: ErbB1 was immunoprecipitated from 500 micrograms WCL and immunoblotted with a phosphotyrosine specific antibody; endogenous in cells; host or cells: HC11 mammary cells (C-HC11, Wnt1-HC11, Wnt5a-HC11)
Experimental: ErbB1 is transactivated by many classes of membrane proteins (Carpenter, 1999; Gschwind et al., 2001). However, Wnt/VFz-mediated activation of ErbB1 has not been reported previously. Since ErbB1 tyrosine phosphorylation is an essential step in ErbB1 activation, we examined whether Wnt can activate ErbB1, by immunoprecipitating the receptor form Wnt/HC11 cells and performing a Westem analysis with phosphotyrosine specific antiserum. For these experiments HC11 cells were grown over night in medium without EGF. As a control for ErbB1 activation, C-HC 11 and Wnt-HC11 cells were treated for 10 minutes with 100 ng/ml EGF. An ErbB1 selective kinase inhibitor PKI166 (Traxler et al., 2001) was also used in some experiments. For this, the cells were pretreated 1 hr with 5 microM PKI 166, or left untreated, before preparing WCLs, essentially as described in Example 1.
ErbB1 was immunoprecipitated from 500 micrograms WCL and immunoblotted with a phosphotyrosine specific antibody (anti-phosphotyrosine AG10, Upstate Biotechnology) essentially as described previously (Lane et al., 2000). Membranes were stripped by placing them in 2% SDS, 62.5 mM Tris pH 6.8, 100 mM beta-mercaptoethanol at 60° C. for 30 min. Stripped membranes were reprobed for ErbB1 using a commercially available antibody (antibody 1005,Santa Cruz Biotechnology). […]

cyclin D1 = assay: Cyclin D1 immunoblot in HC11 cells; assay type: cell-based, mouse; details: control (C-HC11) cells treated 6 hr
Experimental: Briefly, WCL was prepared from HC11, Wnt1- and Wnt5a-expressing HC11 cells and 50 μg immunoblotted essentially as described above using commercially available antibodies against cyclin D1 (NovaCastra) or cyclin D2 (SantaCruz). Both Wnt1- and Wnt5a-HC11 cells express higher levels of cyclin D1, in comparison to HC11 cells. In addition, Wnt1-HC11 cells but not C- or Wnt5a-HC11 cells express cyclin D2.
C-HC11 cells were also treated 6 hrs with CM from Wnt-HC11 cells. WCL were prepared and 50 μg was immunoblotted for Cyclin D1 or Cyclin D2. Similar to the results with the Wnt-HC11 cell lines, both Wnts (CM) stimulated Cyclin D1 expression, while only Wnt1 enhanced cyclin D2 levels.
To assess the contribution of Wnt-transactivated ErbB1 on cyclin D1 and D2 expression, C- and Wnt-HC11 cells were treated 6 hr with PKI166 or CGS27023A or EGF. […] In contrast, the ErbB1 inhibitor had no effect on cyclin D2 levels. […] Thus, cyclin D1 and cyclin D2 are differentially controlled. Both Wnt1 and Wnt5a transactivate ErbB1, which results in increased expression of cyclin D1; in contrast cyclinD2 is only elevated in Wnt1 expressing cells and this is independent of ErbB1 activity.

Molecule | ERK1/2 phosphorylation (ERK1/2; C-HC11 cells, EGF 10 minutes in the presence of sFRP1) | ErbB1 phosphorylation (ErbB1) | cyclin D1 expression (cyclin D1) | Wnt1 and Wnt5a CM-induced increase of phospho-ERK1/2 levels (ERK1/2; C-HC11, CM from sFRP1-producing 293 cells premixed 1:1 with Wnt-containing CM, 10 min)
B1 | able to induce | strong increase | stimulate | 
B2 |  |  |  | prevented
